Assay results taken from patent US20050256058.

B1: schistosome legumain SmAE (Schistosoma mansoni asparaginyl endopeptidase) (protein)
chain: VSDNNKWAVLVAGSNGYPNYRHQADVCHAYHVLRSKGIKPEHIITMMYDDIAYNLMNPFPGKLFNDYNHKDWYEGVVIDYRGKNVNSKTFLKVLKGDKSAGGKVLKSGKNDDVFIYFTDHGAPGLIAFPDDELYAKEFMSTLKYLHSHKRYSKLVIYIEANESGSMFQQILPSNLSIYATTAANSTECSYSTFCGDPTITTCLADLYSYNWIVDSQTHHLTQRTLDQQYKEVKRETDLSHVQRYGDTRMGKLYVSEFQGS
B2: calpain I from porcine erythrocytes (protein)
chain: MAEEVITPVYCTGVSAQVQKLRAKELGLGRHENAIKYLGQDYEQLRAHCLQSGSLFRDEAFPPVPQSLGFKELGPNSSKTYGVKWKRPTELFSNPQFIVDGATRTDICQGALGDCWLLAAIASLTLNDTLLHRVVPHGQSFQNGYAGIFHFQLWQFGEWVDVVVDDLLPTKDGKLVFVHSAQGNEFWSALLEKAYAKVNGSYEALSGGSTSEGFEDFTGGVTEWYELRKAPSDLYSIILKALERGSLLGCSIDISSVLDMEAVTFKKLVKGHAYSVTGAKQVNYQGQMVNLIRMRNPWGEVEWTGAWSDGSSEWNGVDPYQRDQLRVRMEDGEFWMSFRDFLREFTRLEICNLTPDALKSQRVRNWNTTLYEGTWRRGSTAGGCRNYPATFWVNPQFKIRLEETDDPEDDYGGRESGCSFVLALMQKHRRRERRFGRDMETIGFAVYEVPPELVGQPVHLKRDFFLANASRARSEQFINLREVSTRFRLPPGEYVVVPSTFEPNKEGDFVLRFFSEKKAGTQELDDQVQAILPDEQVLSEEEIDENFKALFRQLAGEDMEISVRELRTILNRIISKHKDLRTKGFSLESCRSMVNLMDRDGNGKLGLVEFNILWNRIRNYLSIFRKFDLDKSGSMSAYEMRMAIESAGFKLNKKLFELIITRYSEPDLAVDFDNFVCCLVRLETMFRFFKTLDTDLDGVVTFDLFKWLQLTMFA
B3: Papain (protein)
chain: IPEYVDWRQKGAVTPVKNQGSCGSCWAFSAVVTIEGIIKIRTGNLNEYSEQELLDCDRRSYGCNGGYPWSALQLVAQYGIHYRNTYPYEGVQRYCRSREKGPYAAKTDGVRQVQPYNEGALLYSIANQPVSVVLEAAGKDFQLYRGGIFVGPCGNKVDHAVAAVGYGPNYILIKNSWGTGWGENGYIRIKRGTGNSYGVCGLYTSSFYPVKN
B4: Caspase-3 (protein)
chain: SGISLDNSYKMDYPEMGLCIIINNKNFHKSTGMTSRSGTDVDAANLRETFRNLKYEVRNKNDLTREEIVELMRDVSKEDHSKRSSFVCVLLSHGEEGIIFGTNGPVDLKKITNFFRGDRCRSLTGKPKLFIIQACRGTELDCGIETDSGVDDDMACHKIPVEADFLYAYSTAPGYYSWRNSKDGSWFIQSLCAMLKQYADKLEFMHILTRVNRKVATEFESFSFDATFHAKKQIPCIVSMLTKELYFYH
B5: Caspase-8 (protein)
chain: SESQTLDKVYQMKSKPRGYCLIINNHNFAKAREKVPKLHSIRDRNGTHLDAGALTTTFEELHFEIKPHDDCTVEQIYEILKIYQLMDHSNMDCFICCILSHGDKGIIYGTDGQEAPIYELTSQFTGLKCPSLAGKPKVFFIQACQGDNYQKGIPVETDSEEQPYLEMDLSSPQTRYIPDEADFLLGMATVNNCVSYRNPAEGTWYIQSLCQSLRERCPRGDDILTILTEVNYEVSNKDDKKNMGKQMPQPTFTLRKKLVFPSD
B6: Caspase-6 (protein)
chain: AFYKREMFDPAEKYKMDHRRRGIALIFNHERFFWHLTLPERRGTCADRDNLTRRFSDLGFEVKCFNDLKAEELLLKIHEVSTVSHADADCFVCVFLSHGEGNHIYAYDAKIEIQTLTGLFKGDKCHSLVGKPKIFIIQACRGNQHDVPVIPLDVVDNQTEKLDTNITEVDAASVYTLPAGADFLMCYSVAEGYYSHRETVNGSWYIQDLCEMLGKYGSSLEFTELLTLVNRKVSQRRVDFCKDPSAIGKKQVPCFASMLTKKLHFFPKSN

Biological target: T1, Cbz-Ala-Ala-AAsn-CH═CH-CON(Bzl)-1-CH2-Napth
T1 chain: AAN
Work on B1 yielded a kobs/[I] of 6180 M⁻¹ s⁻¹.

Biological target: T2, Cbz-Ala-Ala-AAsn-CH═CH-CON(Bzl)2
T2 chain: AAN
With B1 the kobs/[I] was 5800 M⁻¹ s⁻¹. B2 was tested, and the “kobs/[I]” value was “NI”. B3 was tested, and the kobs/[I] was 1 M⁻¹ s⁻¹. B4 was tested, and the “kobs/[I]” value was “NI”. For B5, the “kobs/[I]” value was “NI”. With B6 the “kobs/[I]” value was “NI”.

Biological target: T3, PhPr-Leu-ALys-CH═CH-COOEt
T3 chain: LK
B2 was tested, and the “kobs/[I]” value was “NI”. B3 was tested, and the “kobs/[I]” value was “NI”. For B4, the “kobs/[I]” value was “NI”. With B5 the “kobs/[I]” value was “NI”. In the case of B6, the “kobs/[I]” value is reported as “NI”.

Biological target: T4, Cbz-Ala-Ala-AAsn-CH═CH-COOEt
T4 chain: AAN
B1 showed a kobs/[I] of 17400 M⁻¹ s⁻¹. For B2, the “kobs/[I]” value was “NI”. With B3 the “kobs/[I]” value was “NI”. B4 was tested, and the “kobs/[I]” value was “NI”. For B5, the “kobs/[I]” value was “NI”. With B6 the “kobs/[I]” value was “NI”.

Biological target: T5, Cbz-Ala-Ala-AAsn-CH═CH-CON(Bzl)-2-CH2-Napth
T5 chain: AAN
In the case of B1, the kobs/[I] is reported as 6100 M⁻¹ s⁻¹.

Biological target: T6, Cbz-Ala-Ala-AAsn-CH═CH-CONHCH2CH2Ph
T6 chain: AAN
B2 was tested, and the “kobs/[I]” value was “NI”. B3 was tested, and the kobs/[I] was 12 M⁻¹ s⁻¹. In the case of B4, the “kobs/[I]” value is reported as “NI”. With B5 the “kobs/[I]” value was “NI”. In the case of B6, the “kobs/[I]” value is reported as “NI”.

Biological target: T7, PhPr-Leu-AOrn-CH═CH-COOEt
T7 chain: LX
B2 was tested, and the “kobs/[I]” value was “NI”. For B3, the “kobs/[I]” value was “NI”. In the case of B4, the “kobs/[I]” value is reported as “NI”. For B5, the “kobs/[I]” value was “NI”. B6 was tested, and the “kobs/[I]” value was “NI”.

Biological target: T8, Cbz-Ala-Ala-AAsn-CH═CH-CON(CH3)Bzl
T8 chain: AAN
B2 was tested, and the “kobs/[I]” value was “NI”. With B3 the “kobs/[I]” value was “NI”. In the case of B4, the “kobs/[I]” value is reported as “NI”. In the case of B5, the “kobs/[I]” value is reported as “NI”. In the case of B6, the “kobs/[I]” value is reported as “NI”.

Biological target: T9, Cbz-Ala-Ala-AAsn-CH═CH-CO-indoline
T9 chain: AAN
With B2 the “kobs/[I]” value was “NI”. With B3 the “kobs/[I]” value was “NI”. With B4 the “kobs/[I]” value was “NI”. With B5 the “kobs/[I]” value was “NI”. In the case of B6, the “kobs/[I]” value is reported as “NI”.
